Article PMC5655238

Target: Bcl-2 (UniProt P10415)
Assay: anti-HA IP, Bcl-2 blot
Details: reference: HA-Beclin-1 wild type; sites T119

binding against the reference: stronger
Substance: Beclin-1 (from UniProt Q14457) HA-Beclin-1 T119A
